The results in this text go back to IntAct's records for PubMed 17558407.

B1: Protein fantom (Homo sapiens), Q68CZ1-2 (parent)
chain: MSGPTDETAGDLPVKDTGLNLFGMGGLQETSTTRTMKSRQAVSRVSREELEDRFLRLHDENILLKQHARKQEDKIKRMATKLIRLVNDKKRYERVGGGPKRLGRDVEMEEMIEQLQEKVHELEKQNETLKNRLISAKQQLQTQGYRQTPYNNVQSRINTGRRKANENAGLQECPRKGIKFQDADVAETPHPMFTKYGNSLLEEARGEIRNLENVIQSQRGQIEELEHLAEILKTQLRRKENEIELSLLQLREQQATDQRSNIRDNVEMIKLHKQLVEKSNALSAMEGKFIQLQEKQRTLRISHDALMANGDELNMQLKEQRLKCCSLEKQLHSMKFSERRIEELQDRINDLEKERELLKENYDKLYDSAFSAAHEEQWKLKEQQLKVQIAQLETALKSDLTDKTEILDRLKTERDQNEKLVQENRELQLQYLEQKQQLDELKKRIKLYNQENDINADELSEALLLIKAQKEQKNGDLSFLVKVDSEINKDLERSMRELQATHAETVQELEKTRNMLIMQHKINKDYQMEVEAVTRKMENLQQDYELKVEQYVHLLDIRAARIHKLEAQLKDIAYGTKQYKFKPEIMPDDSVDEFDETIHLERGENLFEIHINKVTFSSEVLQASGDKEPVTFCTYAFYDFELQTTPVVRGLHPEYNFTSQYLVHVNDLFLQYIQKNTITLEVHQAYSTEYETIAACQLKFHEILEKSGRIFCTASLIGTKGDIPNFGTVEYWFRLRVPMDQAIRLYRERAKALGYITSNFKGPEHMQSLSQQAPKTAQLSSTDSTDGNLNELHITIRCCNHLQSRASHLQPHPYVVYKFFDFADHDTAIIPSSNDPQFDDHMYFPVPMNMDLDRYLKSESLSFYVFDDSDTQENIYIGKVNVPLISLAHDRCISGIFELTDHQKHPAGTIHVILKWKFAYLPPSGSITTEDLGNFIRSEEPEVVQRLPPASSVSTLVLAPRPKPRQRLTPVDKKVSFVDIMPHQSDVSQEGSVDEVKENTEKMQQGKDDVSLLSEGQLAEQSLASSEDETEITEDLEPEVEEDMSASDSDDCIIPGPISKNIKQPSEKIRIEIIALSLNDSQVTMDDTIQRLFVECRFYSLPAEETPVSLPKPKSGQWVYYNYSNVIYVDKENNKAKRDILKAILQKQEMPNRSLRFTVVSDPPEDEQDLECEDIGVAHVDLADMFQEGRDLIEQNIDVFDARADGEGIGKLRVTVEALHALQSVYKQYRDDLEA
partner: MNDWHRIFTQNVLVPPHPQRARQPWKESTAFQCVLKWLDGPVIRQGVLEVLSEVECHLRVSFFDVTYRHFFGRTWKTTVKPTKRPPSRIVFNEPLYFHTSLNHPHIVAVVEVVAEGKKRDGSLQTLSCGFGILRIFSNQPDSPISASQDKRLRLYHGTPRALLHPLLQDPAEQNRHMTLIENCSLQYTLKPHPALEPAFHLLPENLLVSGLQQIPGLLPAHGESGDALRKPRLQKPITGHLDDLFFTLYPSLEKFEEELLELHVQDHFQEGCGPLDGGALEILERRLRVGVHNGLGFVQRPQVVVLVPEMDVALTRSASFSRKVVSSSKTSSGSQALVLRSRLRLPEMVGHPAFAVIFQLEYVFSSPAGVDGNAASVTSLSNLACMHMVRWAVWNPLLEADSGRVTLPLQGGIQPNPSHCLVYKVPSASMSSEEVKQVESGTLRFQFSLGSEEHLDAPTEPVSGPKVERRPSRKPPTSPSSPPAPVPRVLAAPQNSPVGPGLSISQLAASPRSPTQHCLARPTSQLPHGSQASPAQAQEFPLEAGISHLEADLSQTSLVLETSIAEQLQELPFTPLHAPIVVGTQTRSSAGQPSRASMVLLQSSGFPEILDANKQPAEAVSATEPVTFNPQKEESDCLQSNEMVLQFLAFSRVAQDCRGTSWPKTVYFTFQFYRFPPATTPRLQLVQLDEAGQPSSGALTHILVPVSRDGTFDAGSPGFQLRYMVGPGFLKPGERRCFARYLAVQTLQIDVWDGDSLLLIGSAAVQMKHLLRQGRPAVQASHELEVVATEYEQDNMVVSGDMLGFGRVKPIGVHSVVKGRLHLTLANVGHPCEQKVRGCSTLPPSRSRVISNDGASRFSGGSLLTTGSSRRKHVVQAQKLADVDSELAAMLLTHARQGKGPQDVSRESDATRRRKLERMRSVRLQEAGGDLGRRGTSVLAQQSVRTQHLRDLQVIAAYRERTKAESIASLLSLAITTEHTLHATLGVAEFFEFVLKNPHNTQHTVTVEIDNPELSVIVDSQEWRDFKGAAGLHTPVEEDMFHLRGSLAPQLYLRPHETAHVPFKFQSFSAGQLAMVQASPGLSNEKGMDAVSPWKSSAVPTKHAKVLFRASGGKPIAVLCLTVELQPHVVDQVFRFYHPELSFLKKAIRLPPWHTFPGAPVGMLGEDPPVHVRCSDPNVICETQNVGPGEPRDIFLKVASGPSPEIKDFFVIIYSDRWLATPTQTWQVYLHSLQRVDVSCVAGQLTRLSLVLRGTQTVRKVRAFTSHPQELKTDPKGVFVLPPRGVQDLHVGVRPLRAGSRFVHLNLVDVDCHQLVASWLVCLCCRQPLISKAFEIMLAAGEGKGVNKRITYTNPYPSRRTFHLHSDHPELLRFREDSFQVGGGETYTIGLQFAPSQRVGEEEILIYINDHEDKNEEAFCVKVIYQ
B2: Nephrocystin-4 (Homo sapiens), O75161 (parent)
chain: B1 partner

In the first assay the parent is B1. The following applies: with nphp4_human NPHP4, O75161.
As for T615P, the “effect of a mutation on the interaction” value was “decreasing interaction”.

In a further assay the parent is B2. The following applies: with RPGRIP1L.
As for G754R, the “effect of a mutation on the interaction” value is on record as “decreasing interaction”.
